Reference: the supplement of paper PMC9112550, “Optimization of the antimicrobial peptide Bac7 by deep mutational scanning” (BMC Biology, 2022)

System: Escherichia coli TOP10
Assay: shrunken log2 fold change of peptide-encoding DNA abundance (4.5 h post-induction vs induction); higher = less antimicrobial activity (less host growth inhibition)
Conditions: time post-induction: 4.5 h; library: site-saturation at positions 5, 18, 19, 20
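Further: peptides expressed intracellularly from a pBAD plasmid library in pooled LB shake-flask culture, induced with 0.3% L-arabinose, DNA abundance read by NGS, three biological replicates, DESeq2 with apeglm shrinkage.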

First: RRIRERPPRLPRPRPRPWYVPRP
Second: RRIRGRPPRLPRPRPRPGCPPRP
The “shrunken log2 fold change” value of the first is lower: -0.612 for the first, 0.806 for the second.

First: RRIRSRPPRLPRPRPRPTSVPRP
Second: RRIRVRPPRLPRPRPRPNITPRP
The “shrunken log2 fold change” value of the first is higher: 0.00616 for the first, -0.808 for the second.

First: RRIRQRPPRLPRPRPRPCEHPRP
Second: RRIRYRPPRLPRPRPRPFLNPRP
The “shrunken log2 fold change” value of the first is higher: 0.0413 for the first, -0.369 for the second.

Compared with RRIRFRPPRLPRPRPRPEPSPRP, RRIRKRPPRLPRPRPRPDYAPRP is lower in “shrunken log2 fold change” value: 0.378 for the first, 0.102 for the second.

Going from RRIRCRPPRLPRPRPRPKYHPRP to RRIRMRPPRLPRPRPRPGWAPRP, the “shrunken log2 fold change” value rises from -0.743 to 0.965.

First: RRIRGRPPRLPRPRPRPMCDPRP
Second: RRIRQRPPRLPRPRPRPCYGPRP
The “shrunken log2 fold change” value of the first is higher: 1.07 for the first, -0.0796 for the second.

Compared with RRIRERPPRLPRPRPRPWATPRP, RRIRKRPPRLPRPRPRPPKAPRP is higher in “shrunken log2 fold change” value: 0.127 for the first, 0.609 for the second.

First: RRIRARPPRLPRPRPRPVEWPRP
Second: RRIRSRPPRLPRPRPRPTIIPRP
The “shrunken log2 fold change” value of the first is higher: 0.544 for the first, -0.35 for the second.

Compared with RRIRIRPPRLPRPRPRPHFYPRP, RRIRPRPPRLPRPRPRPGLHPRP is higher in “shrunken log2 fold change” value: -0.407 for the first, 0.09 for the second.

RRIRPRPPRLPRPRPRPRITPRP and RRIRYRPPRLPRPRPRPEIVPRP are within 0.2 log units of each other in “shrunken log2 fold change” value: 0.0754 for the first, -0.00224 for the second.

Compared with RRIRQRPPRLPRPRPRPNDAPRP, RRIRWRPPRLPRPRPRPSSRPRP is higher in “shrunken log2 fold change” value: -0.0276 for the first, 0.188 for the second.

First: RRIRFRPPRLPRPRPRPQPPPRP
Second: RRIRDRPPRLPRPRPRPCGVPRP
The “shrunken log2 fold change” value of the first is higher: 0.94 for the first, 0.0765 for the second.

First: RRIRERPPRLPRPRPRPYDGPRP
Second: RRIRLRPPRLPRPRPRPIQHPRP
The “shrunken log2 fold change” value of the first is higher: -0.0116 for the first, -0.213 for the second.

RRIRNRPPRLPRPRPRPVHCPRP and RRIRQRPPRLPRPRPRPDYSPRP are within 0.2 log units of each other in “shrunken log2 fold change” value: -0.123 for the first, -0.0839 for the second.

RRIRERPPRLPRPRPRPRGTPRP and RRIRCRPPRLPRPRPRPTVEPRP are within 0.2 log units of each other in “shrunken log2 fold change” value: 0.0483 for the first, 0.199 for the second.

Compared with RRIRRRPPRLPRPRPRPGDNPRP, RRIRGRPPRLPRPRPRPVILPRP is lower in “shrunken log2 fold change” value: 0.169 for the first, -0.33 for the second.

RRIRGRPPRLPRPRPRPIHVPRP and RRIRERPPRLPRPRPRPIPNPRP are within 0.2 log units of each other in “shrunken log2 fold change” value: -0.315 for the first, -0.135 for the second.

Going from RRIRARPPRLPRPRPRPCYCPRP to RRIRHRPPRLPRPRPRPSFIPRP, the “shrunken log2 fold change” value falls from -0.0765 to -0.619.

RRIRCRPPRLPRPRPRPSQSPRP and RRIRLRPPRLPRPRPRPRYEPRP are within 0.2 log units of each other in “shrunken log2 fold change” value: -0.221 for the first, -0.286 for the second.

RRIRRRPPRLPRPRPRPWLDPRP and RRIRVRPPRLPRPRPRPHMEPRP are within 0.2 log units of each other in “shrunken log2 fold change” value: -0.0721 for the first, -0.0402 for the second.

Compared with RRIRDRPPRLPRPRPRPVGEPRP, RRIRPRPPRLPRPRPRPFFHPRP is lower in “shrunken log2 fold change” value: 0.55 for the first, -0.229 for the second.

Compared with RRIRWRPPRLPRPRPRPSNNPRP, RRIRARPPRLPRPRPRPCPNPRP is higher in “shrunken log2 fold change” value: -0.446 for the first, -0.0809 for the second.

Compared with RRIRIRPPRLPRPRPRPYKMPRP, RRIRIRPPRLPRPRPRPLQTPRP is higher in “shrunken log2 fold change” value: -0.889 for the first, 0.0711 for the second.

RRIRIRPPRLPRPRPRPWDNPRP and RRIRCRPPRLPRPRPRPCTVPRP are within 0.2 log units of each other in “shrunken log2 fold change” value: -0.339 for the first, -0.419 for the second.

Compared with RRIRRRPPRLPRPRPRPIRAPRP, RRIRWRPPRLPRPRPRPNWHPRP is lower in “shrunken log2 fold change” value: 0.266 for the first, -0.00322 for the second.

RRIRRRPPRLPRPRPRPQISPRP and RRIRYRPPRLPRPRPRPVGQPRP are within 0.2 log units of each other in “shrunken log2 fold change” value: -0.0603 for the first, -0.106 for the second.

RRIRCRPPRLPRPRPRPALMPRP and RRIRLRPPRLPRPRPRPMKSPRP are within 0.2 log units of each other in “shrunken log2 fold change” value: -0.011 for the first, 0.00719 for the second.

First: RRIRCRPPRLPRPRPRPQTFPRP
Second: RRIRLRPPRLPRPRPRPSNRPRP
The “shrunken log2 fold change” value of the first is higher: -0.139 for the first, -0.599 for the second.

Compared with RRIRFRPPRLPRPRPRPIHIPRP, RRIRKRPPRLPRPRPRPKPMPRP is higher in “shrunken log2 fold change” value: -0.022 for the first, 0.515 for the second.

RRIRFRPPRLPRPRPRPGLKPRP and RRIRMRPPRLPRPRPRPICPPRP are within 0.2 log units of each other in “shrunken log2 fold change” value: 0.0731 for the first, -0.123 for the second.

First: RRIRARPPRLPRPRPRPVREPRP
Second: RRIRIRPPRLPRPRPRPGVGPRP
The “shrunken log2 fold change” value of the first is higher: 1.01 for the first, 0.435 for the second.

Going from RRIRRRPPRLPRPRPRPKHYPRP to RRIRTRPPRLPRPRPRPWMRPRP, the “shrunken log2 fold change” value rises from 0.227 to 0.556.

First: RRIRCRPPRLPRPRPRPDTWPRP
Second: RRIRSRPPRLPRPRPRPPYKPRP
The “shrunken log2 fold change” value of the first is higher: -0.234 for the first, -0.465 for the second.

Compared with RRIRNRPPRLPRPRPRPIFEPRP, RRIRCRPPRLPRPRPRPPTTPRP is higher in “shrunken log2 fold change” value: 0.0552 for the first, 0.353 for the second.

First: RRIRKRPPRLPRPRPRPLELPRP
Second: RRIRGRPPRLPRPRPRPVWWPRP
The “shrunken log2 fold change” value of the first is lower: 0.134 for the first, 0.997 for the second.

Going from RRIRVRPPRLPRPRPRPKPVPRP to RRIRGRPPRLPRPRPRPCNYPRP, the “shrunken log2 fold change” value falls from 0.42 to -0.11.

First: RRIRCRPPRLPRPRPRPSWMPRP
Second: RRIRHRPPRLPRPRPRPFNMPRP
The “shrunken log2 fold change” value of the first is higher: 0.326 for the first, -0.0933 for the second.

First: RRIRRRPPRLPRPRPRPSPVPRP
Second: RRIRGRPPRLPRPRPRPRDCPRP
The “shrunken log2 fold change” value of the first is lower: 0.379 for the first, 1.11 for the second.

Compared with RRIRERPPRLPRPRPRPFEFPRP, RRIRPRPPRLPRPRPRPLRPPRP is higher in “shrunken log2 fold change” value: -0.629 for the first, 0.726 for the second.

Compared with RRIRSRPPRLPRPRPRPSDNPRP, RRIRMRPPRLPRPRPRPTERPRP is higher in “shrunken log2 fold change” value: -0.249 for the first, 0.582 for the second.

First: RRIRGRPPRLPRPRPRPVMGPRP
Second: RRIRGRPPRLPRPRPRPEMYPRP
The “shrunken log2 fold change” value of the first is lower: 0.289 for the first, 0.837 for the second.

First: RRIRLRPPRLPRPRPRPCICPRP
Second: RRIRKRPPRLPRPRPRPRWGPRP
The “shrunken log2 fold change” value of the first is lower: -0.346 for the first, 0.358 for the second.

RRIRVRPPRLPRPRPRPKMLPRP and RRIRCRPPRLPRPRPRPIMPPRP are within 0.2 log units of each other in “shrunken log2 fold change” value: -0.13 for the first, -0.11 for the second.

Compared with RRIRRRPPRLPRPRPRPKQSPRP, RRIRMRPPRLPRPRPRPYWAPRP is lower in “shrunken log2 fold change” value: 0.143 for the first, -0.0573 for the second.

First: RRIRFRPPRLPRPRPRPENSPRP
Second: RRIRCRPPRLPRPRPRPIMDPRP
The “shrunken log2 fold change” value of the first is higher: -3.45e-05 for the first, -0.5 for the second.

First: RRIRWRPPRLPRPRPRPFPFPRP
Second: RRIRNRPPRLPRPRPRPNDKPRP
The “shrunken log2 fold change” value of the first is higher: -0.28 for the first, -0.549 for the second.

Compared with RRIRWRPPRLPRPRPRPPESPRP, RRIRHRPPRLPRPRPRPAWGPRP is higher in “shrunken log2 fold change” value: 0.225 for the first, 0.542 for the second.

Going from RRIRHRPPRLPRPRPRPNHHPRP to RRIRQRPPRLPRPRPRPWDDPRP, the “shrunken log2 fold change” value rises from -0.797 to -0.00146.

Going from RRIRIRPPRLPRPRPRPDWIPRP to RRIRDRPPRLPRPRPRPRVFPRP, the “shrunken log2 fold change” value rises from -1.16 to 0.485.

Compared with RRIRFRPPRLPRPRPRPKGQPRP, RRIRDRPPRLPRPRPRPFQWPRP is lower in “shrunken log2 fold change” value: 0.105 for the first, -0.156 for the second.

Compared with RRIRMRPPRLPRPRPRPLCMPRP, RRIRQRPPRLPRPRPRPSKFPRP is lower in “shrunken log2 fold change” value: 0.0571 for the first, -0.246 for the second.

Compared with RRIRDRPPRLPRPRPRPMFRPRP, RRIRWRPPRLPRPRPRPTFIPRP is lower in “shrunken log2 fold change” value: -0.114 for the first, -0.417 for the second.

Compared with RRIRFRPPRLPRPRPRPYDDPRP, RRIRMRPPRLPRPRPRPLMNPRP is lower in “shrunken log2 fold change” value: -0.0579 for the first, -0.263 for the second.

Compared with RRIRKRPPRLPRPRPRPYMLPRP, RRIRQRPPRLPRPRPRPWILPRP is higher in “shrunken log2 fold change” value: -0.579 for the first, -0.00158 for the second.

In the case of RRIRHRPPRLPRPRPRPNYEPRP, the “shrunken log2 fold change” value is reported as -0.586.
